We go through 10 molecules from paper PMC10928148 (Molecular Therapy, 2024).

First the molecules themselves.
B1: COVA2-15 secretory IgA2 (antibody, V domains shown)
VH: QVQLLESGGGLVQPGGSLRLSCAASGFTFSSYAMSWVRQAPGKGLEWASAISGSGGSTYYADSVEGRFTISRDNSKNTLYLQMNSLRAEDTAVYYCAKDTGYCGDDCYIKLIRGGPDYWGQGTLVTVSS
VL: DIVMTQSPLSLPVTLGQPASISCRSSQSLVYSDGNTFLNWFQQRPGQSPRRLIYQVSNRDSGVPDRFSGSGSGTDFTLKISRVEAEDVGVYYCMQGTHWPRTFGQGTKLEIK
B2: COVA2-15 monomeric IgA1 (antibody, V domains shown)
VH: QVQLLESGGGLVQPGGSLRLSCAASGFTFSSYAMSWVRQAPGKGLEWASAISGSGGSTYYADSVEGRFTISRDNSKNTLYLQMNSLRAEDTAVYYCAKDTGYCGDDCYIKLIRGGPDYWGQGTLVTVSS
VL: DIVMTQSPLSLPVTLGQPASISCRSSQSLVYSDGNTFLNWFQQRPGQSPRRLIYQVSNRDSGVPDRFSGSGSGTDFTLKISRVEAEDVGVYYCMQGTHWPRTFGQGTKLEIK
B3: COVA2-15 monomeric IgA2 (antibody, V domains shown)
VH: QVQLLESGGGLVQPGGSLRLSCAASGFTFSSYAMSWVRQAPGKGLEWASAISGSGGSTYYADSVEGRFTISRDNSKNTLYLQMNSLRAEDTAVYYCAKDTGYCGDDCYIKLIRGGPDYWGQGTLVTVSS
VL: DIVMTQSPLSLPVTLGQPASISCRSSQSLVYSDGNTFLNWFQQRPGQSPRRLIYQVSNRDSGVPDRFSGSGSGTDFTLKISRVEAEDVGVYYCMQGTHWPRTFGQGTKLEIK
B4: COVA2-15 IgG (antibody, V domains shown)
VH: QVQLLESGGGLVQPGGSLRLSCAASGFTFSSYAMSWVRQAPGKGLEWASAISGSGGSTYYADSVEGRFTISRDNSKNTLYLQMNSLRAEDTAVYYCAKDTGYCGDDCYIKLIRGGPDYWGQGTLVTVSS
VL: DIVMTQSPLSLPVTLGQPASISCRSSQSLVYSDGNTFLNWFQQRPGQSPRRLIYQVSNRDSGVPDRFSGSGSGTDFTLKISRVEAEDVGVYYCMQGTHWPRTFGQGTKLEIK
B5: COVA2-15 secretory IgA1 (antibody, V domains shown)
VH: QVQLLESGGGLVQPGGSLRLSCAASGFTFSSYAMSWVRQAPGKGLEWASAISGSGGSTYYADSVEGRFTISRDNSKNTLYLQMNSLRAEDTAVYYCAKDTGYCGDDCYIKLIRGGPDYWGQGTLVTVSS
VL: DIVMTQSPLSLPVTLGQPASISCRSSQSLVYSDGNTFLNWFQQRPGQSPRRLIYQVSNRDSGVPDRFSGSGSGTDFTLKISRVEAEDVGVYYCMQGTHWPRTFGQGTKLEIK
B6: COVA2-15 IgG (antibody, V domains shown)
VH: QVQLLESGGGLVQPGGSLRLSCAASGFTFSSYAMSWVRQAPGKGLEWASAISGSGGSTYYADSVEGRFTISRDNSKNTLYLQMNSLRAEDTAVYYCAKDTGYCGDDCYIKLIRGGPDYWGQGTLVTVSS
VL: DIVMTQSPLSLPVTLGQPASISCRSSQSLVYSDGNTFLNWFQQRPGQSPRRLIYQVSNRDSGVPDRFSGSGSGTDFTLKISRVEAEDVGVYYCMQGTHWPRTFGQGTKLEIK
B7: COVA2-15 monomeric IgA2 (antibody, V domains shown)
VH: QVQLLESGGGLVQPGGSLRLSCAASGFTFSSYAMSWVRQAPGKGLEWASAISGSGGSTYYADSVEGRFTISRDNSKNTLYLQMNSLRAEDTAVYYCAKDTGYCGDDCYIKLIRGGPDYWGQGTLVTVSS
VL: DIVMTQSPLSLPVTLGQPASISCRSSQSLVYSDGNTFLNWFQQRPGQSPRRLIYQVSNRDSGVPDRFSGSGSGTDFTLKISRVEAEDVGVYYCMQGTHWPRTFGQGTKLEIK
B8: COVA2-15 monomeric IgA1 (antibody, V domains shown)
VH: QVQLLESGGGLVQPGGSLRLSCAASGFTFSSYAMSWVRQAPGKGLEWASAISGSGGSTYYADSVEGRFTISRDNSKNTLYLQMNSLRAEDTAVYYCAKDTGYCGDDCYIKLIRGGPDYWGQGTLVTVSS
VL: DIVMTQSPLSLPVTLGQPASISCRSSQSLVYSDGNTFLNWFQQRPGQSPRRLIYQVSNRDSGVPDRFSGSGSGTDFTLKISRVEAEDVGVYYCMQGTHWPRTFGQGTKLEIK
B9: COVA2-15 secretory IgA2 (antibody, V domains shown)
VH: QVQLLESGGGLVQPGGSLRLSCAASGFTFSSYAMSWVRQAPGKGLEWASAISGSGGSTYYADSVEGRFTISRDNSKNTLYLQMNSLRAEDTAVYYCAKDTGYCGDDCYIKLIRGGPDYWGQGTLVTVSS
VL: DIVMTQSPLSLPVTLGQPASISCRSSQSLVYSDGNTFLNWFQQRPGQSPRRLIYQVSNRDSGVPDRFSGSGSGTDFTLKISRVEAEDVGVYYCMQGTHWPRTFGQGTKLEIK
B10: COVA2-15 secretory IgA1 (antibody, V domains shown)
VH: QVQLLESGGGLVQPGGSLRLSCAASGFTFSSYAMSWVRQAPGKGLEWASAISGSGGSTYYADSVEGRFTISRDNSKNTLYLQMNSLRAEDTAVYYCAKDTGYCGDDCYIKLIRGGPDYWGQGTLVTVSS
VL: DIVMTQSPLSLPVTLGQPASISCRSSQSLVYSDGNTFLNWFQQRPGQSPRRLIYQVSNRDSGVPDRFSGSGSGTDFTLKISRVEAEDVGVYYCMQGTHWPRTFGQGTKLEIK

The target of one assay is T1, Wuhan-Hu-1 S protein on plant-produced virus-like particles (Severe acute respiratory syndrome …, UniProt P0DTC2).
T1 construct: also called Spike protein of the Wuhan variant on VLPs; Wuhan variant
As to the kind of experiment: ELISA. Particulars: both partners purified. In general terms: ELISA stands for enzyme-linked immunosorbent assay.
Turning to B1, the EC50 (in general, the concentration needed to bring the measured effect to its halfway point) was around 10 pM. The same measure, in the same setting: then B2, with around 50 pM; and B3, with around 50 pM; and B4, with around 50 pM. As for B5, the EC50 was around 10 pM.

For a further assay, the target named is T2, Wuhan-Hu-1 S protein on plant-produced virus-like particles (Severe acute respiratory syndrome …, UniProt P0DTC2).
T2 construct: also called SARS-CoV-2 VLPs (Wuhan variant)
As to the kind of experiment: ELISA. Particulars: both partners purified.
B6 registered an EC50 of 32 pM. Turning to B7, the EC50 turned out to be 149 pM. In turn, B8 showed an EC50 of 54 pM. Same read-out and setting: for B9 the value was 17 pM. In the case of B10, the EC50 came out at 10 pM.
